RU and Kd data for 6 molecules are collected here from patent publication EP4545559A2 (INSTITUTO BUTANTAN, dated 2025).

Assay [1] deals with T1, RBD Gamma (K417T/E484K/N501Y) (SARS-CoV-2, UniProt P0DTC2 319-541).
T1 construct: domain: RBD
As to the kind of experiment: SPR, antigen on CM5 sensor. In general terms: Surface plasmon resonance follows binding to a sensor surface in real time, without labels.

In assay [2] the target is T2, RBD Delta (L452R/T478K) (SARS-CoV-2, UniProt P0DTC2 319-541).
T2 construct: domain: RBD
As to the kind of experiment: SPR, antigen on CM5 sensor.

Assay [3] concerns the target T3, RBD Omicron (G339D, S371L, S373P, S375F, K417N, N440K, G446S, S477N, T478K, E484A, Q493R, G496S, Q49 (SARS-CoV-2, UniProt P0DTC2 319-541)).
T3 construct: range 319-541
In words: SPR, antigen on CM5 sensor.

Assay [4] deals with T1, RBD Gamma (K417T/E484K/N501Y). In words: SPR kinetics; * dissociation in 360sec.
The target in assay [5] is T2, RBD Delta (L452R/T478K). In words: SPR kinetics; * dissociation in 360sec.
In assay [6] the target is T3, RBD Omicron (G339D, S371L, S373P, …). In words: SPR kinetics; * dissociation in 360sec.
Assay [7] addresses T1, RBD Gamma (K417T/E484K/N501Y). In words: SPR, antigen on CM5 sensor. This is another data set of the same source.
In assay [8] the target is T2, RBD Delta (L452R/T478K). In words: SPR, antigen on CM5 sensor. The source holds these as a separate data set.
Assay [9] has as its target T3, RBD Omicron (G339D, S371L, S373P, …). In words: SPR, antigen on CM5 sensor. The source holds these as a separate data set.
The target of assay [10] is T1, RBD Gamma (K417T/E484K/N501Y). As to the kind of experiment: SPR kinetics; ** dissociation in 36000sec.
Assay [11] has as its target T2, RBD Delta (L452R/T478K). In words: SPR kinetics; *** did not dissociate until 36000sec.
Assay [12] deals with T3, RBD Omicron (G339D, S371L, S373P, …). The assay is described as above.
Assay [13] addresses T1, RBD Gamma (K417T/E484K/N501Y). In words: SPR, antigen on CM5 sensor. The source holds these as a separate data set.
Assay [14] deals with T2, RBD Delta (L452R/T478K). As to the kind of experiment: SPR, antigen on CM5 sensor. This is another data set of the same source.
Assay [15] concerns the target T3, RBD Omicron (G339D, S371L, S373P, …). As to the kind of experiment: SPR, antigen on CM5 sensor. The source holds these as a separate data set.
In assay [16] the target is T1, RBD Gamma (K417T/E484K/N501Y). As to the kind of experiment: SPR kinetics; * dissociation in 360sec. This is another data set of the same source.
The target of assay [17] is T3, RBD Omicron (G339D, S371L, S373P, …). In words: SPR kinetics; * dissociation in 360sec. This is another data set of the same source.
Assay [18] addresses T2, RBD Delta (L452R/T478K). In words: SPR kinetics; *** did not dissociate until 36000sec. This is another data set of the same source.
The target in assay [19] is T1, RBD Gamma (K417T/E484K/N501Y). In words: SPR, antigen on CM5 sensor. This is another data set of the same source.
In assay [20] the target is T2, RBD Delta (L452R/T478K). In words: SPR, antigen on CM5 sensor. The source holds these as a separate data set.
The target of assay [21] is T3, RBD Omicron (G339D, S371L, S373P, …). As to the kind of experiment: SPR, antigen on CM5 sensor. The source holds these as a separate data set.
In assay [22] the target is T1, RBD Gamma (K417T/E484K/N501Y). As to the kind of experiment: SPR kinetics; *** did not dissociate until 36000sec.
The target in assay [23] is T2, RBD Delta (L452R/T478K). The description is as above. This is another data set of the same source.
Assay [24] deals with T3, RBD Omicron (G339D, S371L, S373P, …). Described as above. The source holds these as a separate data set.
Assay [25] deals with T1, RBD Gamma (K417T/E484K/N501Y). As to the kind of experiment: SPR, antigen on CM5 sensor. The source holds these as a separate data set.
Assay [26] deals with T2, RBD Delta (L452R/T478K). As to the kind of experiment: SPR, antigen on CM5 sensor. The source holds these as a separate data set.
The target of assay [27] is T3, RBD Omicron (G339D, S371L, S373P, …). As to the kind of experiment: SPR, antigen on CM5 sensor. This is another data set of the same source.
The target is the same in assay [28]. As to the kind of experiment: SPR kinetics; * dissociation in 360sec. The source holds these as a separate data set.
The target in assay [29] is T1, RBD Gamma (K417T/E484K/N501Y). As to the kind of experiment: SPR kinetics; *** did not dissociate until 36000sec. The source holds these as a separate data set.
The target in assay [30] is T2, RBD Delta (L452R/T478K). Described as above. The source holds these as a separate data set.
The target in assay [31] is T2, RBD Delta (L452R/T478K). As to the kind of experiment: SPR, antigen on CM5 sensor. This is another data set of the same source.
Assay [32] addresses T2, RBD Delta (L452R/T478K). As to the kind of experiment: SPR kinetics; * dissociation in 360sec. The source holds these as a separate data set.

Read-outs that look alike come from different tables or passages of the source.

B1: Monoclonal antibody S.11.1.F4 (antibody, V domains shown)
VH: QVQLVQSGAEVKKPGSSVRVSCKASAGTFSSYAIRWVRQAPGQGLEWMGTIIPIFGTTNYAQKFQGRVSITADESTNTAYMELSSLRSEDTAVYYCARDLETSPLYGLDVWGQGTTVTVSS
VL: DIQMTQSPSSLSASVGDRVTITCRASQTISRYLNWYQQKPGKPPKLLIFAASTLHSGVPSRFSGSGSGTEFTLTITSLHPDDFSTYYCQQTYSSPHTFGQGTKLEIK
notes: also called S.11.1.F4 mAb
For the molecule B1, the RU is 218 RU in assay [1], 743 RU in the assay with RBD Delta (L452R/T478K) [2] and 153 RU in assay [3]. The Kd was 1.21 nM in assay [4], 1.89 nM with RBD Delta (L452R/T478K) [5] and 0.584 nM in assay [6].

B2: Monoclonal antibody S.9.4.A9 (antibody, V domains shown)
VH: QVQLVQSGAEVKKPGASVKVSCKASGYTFISYGISWVRQAPGQELEWMGWISAYNGNTNYAQKLQGRVTMTRDTSTTTAYMELRSLRSDDTAVYYCARVLGGLWFGEPKARHSDYWGQGTLVTVSS
VL: IQMTQSPSSLSASVGDRVTITCRASQGINNYLAWFQQKPGKAPKSLIYAASSLHSGVPSRFSGSGSGTDFTLTISSLQPEDFATYYCQQYNTYPITFGQGTRLEIK
notes: also called mAb S.9.4.A9
For B2, the RU in assay [7] worked out at 3 RU; with RBD Delta (L452R/T478K) [8], 4 RU; in [9], 1 RU. Also, the Kd in [10] is 0.254 nM; in the assay with RBD Delta (L452R/T478K) [11], approximately 0.0316 nM; in [12], approximately 79.6 nM.

B3: Monoclonal antibody S.9.1.H5 (antibody, V domains shown)
VH: QVQLVESGGGVVQPGRSLRLSCAASGFTFSRYGMHWVRQAPGKGLEWVALISYDGTNKYYADSVKGRFTISRDNSKSTQYLQMNSLRAEDTAVYFCAKESFGYASGSYYFDYWGQGTLVTVSS
VL: DIQMTQSPSSLSASVGDRITITCQASQDISNYLNWYQQKPGKAPKLMIYDASNLETGVPSRFSGSGAGTDFTFTISSLQPEDFARYYCQQYGNLPLTFGGGTKVEIK
notes: also called mAb S.9.1.H5
Regarding B3, the RU in assay [13] was found to be 376 RU; in the assay with RBD Delta (L452R/T478K) [14], 942 RU; in [15] it was 175 RU. Besides, the figures for the Kd (in assay [16]; in [17]; with RBD Delta (L452R/T478K) [18]) were 1.11 nM, 1.83 nM and approximately 0.197 nM, respectively.

B4: Monoclonal antibody S.9.2.B8 (antibody, V domains shown)
VH: EVQLVETGGGLIQPGGSLRLSCAASGLIVSSNYMTWVRQAPGKGLEWVSVLYSGGTTYYADSVKGRVTISRDNSKNTLYLQVNSLTVADTAVYYCARDLADRGGMDVWGQGTTVTVSS
VL: SYELTQPPSVSVAPGQTARITCGGNNIGSQSVHWYQQKPGQAPVLVVYDDSDRPSGIPERFSGSKSGNMATLTISRVEAGDEADYYCQVWDSSSDHVVFGGGTKLTVL
notes: also called mAb S.9.2.B8
For B4, the RU was 74 RU in [19], 163 RU in the assay with RBD Delta (L452R/T478K) [20] and 22 RU in assay [21]. Further, the Kd in assay [22] was approximately 1.17 nM; with RBD Delta (L452R/T478K) [23] it was approximately 0.000836 nM; in assay [24], approximately 1.77 nM.

B5: Monoclonal antibody S.9.1.C9 (antibody, V domains shown)
VH: QVQLVESGGGVVQPGRSLGLSCAVSGFTFSNYGMDWVRQAPGKGLEWVAVTSYDGSNKYYADSVKGRFTISRDNSKNTLYLQMNSLRTEDTAVYYCAKHGGGPYCGGGTCYLAYFDYWGQGTLVTVSS
VL: DIQMTQSPSSLSASVRDRVTITCQASQDISKFLNWYQQKPGKAPKLLIYDASNLETGVPSRFSGSGSGTDFTFTISSLQPEDIATYYCQQYDNLPITFGQGTRLEIKR
notes: also called mAb S.9.1.C9
Consider B5, for which the RU was 294 RU in [25], 636 RU with RBD Delta (L452R/T478K) [26] and 137 RU in assay [27]. Besides, the results for the Kd (in [28]; in [29]; with RBD Delta (L452R/T478K) [30]) were 0.241 nM, approximately 0.362 nM and approximately 0.455 nM, respectively.

B6: Monoclonal antibody S.11.1.H1 (antibody, V domains shown)
VH: QVQLVESGGGVVQPGRSLTLSCSASGFPFSTYVMHWVRQAPGKGLEWVAVISSDGSNENYADSVKGRFTVSRDNFGSTLFLQMSTLRPDDTAVYYCARTAGRGYADRGRLDTWGQGTLVTVSS
VL: not shown
notes: also called mAb S.11.1.H1
The molecule B6 came in with an RU with RBD Delta (L452R/T478K) [31] of 913 RU. This molecule also had a Kd with RBD Delta (L452R/T478K) [32] of 0.548 nM.

What is called Kd is the constant that tells how readily two partners part at equilibrium.
